The results in this text go back to publication PMC5555194.

In the test the target is C3d (human), P01024. The test is described as follows: SPR; C3d amine-coupled to a different flow cell of the same C1 chip; CFH (from 2.5 to 0.019 uM), or 0.6 uM CFH premixed with 1.2 uM PspCN, flowed over; equilibrium plots. The settings on record: remark: other sources report otherwise.
C3d (human), P01024, sequence (P01024 1002-1303): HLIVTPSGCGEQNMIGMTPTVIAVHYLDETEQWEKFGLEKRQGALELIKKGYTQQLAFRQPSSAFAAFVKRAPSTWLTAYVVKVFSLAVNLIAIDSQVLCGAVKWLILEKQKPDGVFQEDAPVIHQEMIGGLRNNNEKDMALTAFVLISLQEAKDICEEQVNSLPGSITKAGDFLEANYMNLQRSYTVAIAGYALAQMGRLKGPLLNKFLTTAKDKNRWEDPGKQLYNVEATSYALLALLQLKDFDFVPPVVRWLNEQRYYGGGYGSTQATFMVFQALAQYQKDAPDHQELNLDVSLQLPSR

B1: V62-CFH (recombinant human complement factor H, variant Val-62, Tyr-402, Glu-936), P08603 19-1231 (natural protein)
chain: EDCNELPPRRNTEILTGSWSDQTYPEGTQAIYKCRPGYRSLGNVIMVCRKGEWVALNPLRKCQKRPCGHPGDTPFGTFTLTGGNVFEYGVKAVYTCNEGYQLLGEINYRECDTDGWTNDIPICEVVKCLPVTAPENGKIVSSAMEPDREYHFGQAVRFVCNSGYKIEGDEEMHCSDDGFWSKEKPKCVEISCKSPDVINGSPISQKIIYKENERFQYKCNMGYEYSERGDAVCTESGWRPLPSCEEKSCDNPYIPNGDYSPLRIKHRTGDEITYQCRNGFYPATRGNTAKCTSTGWIPAPRCTLKPCDYPDIKHGGLYHENMRRPYFPVAVGKYYSYYCDEHFETPSGSYWDHIHCTQDGWSPAVPCLRKCYFPYLENGYNQNYGRKFVQGKSIDVACHPGYALPKAQTTVTCMENGWSPTPRCIRVKTCSKSSIDIENGFISESQYTYALKEKAKYQCKLGYVTADGETSGSITCGKDGWSAQPTCIKSCDIPVFMNARTKNDFTWFKLNDTLDYECHDGYESNTGSTTGSIVCGYNGWSDLPICYERECELPKIDVHLVPDRKKDQYKVGEVLKFSCKPGFTIVGPNSVQCYHFGLSPDLPICKEQVQSCGPPPELLNGNVKEKTKEEYGHSEVVEYYCNPRFLMKGPNKIQCVDGEWTTLPVCIVEESTCGDIPELEHGWAQLSSPPYYYGDSVEFNCSESFTMIGHRSITCIHGVWTQLPQCVAIDKLKKCKSSNLIILEEHLKNKKEFDHNSNIRYRCRGKEGWIHTVCINGRWDPEVNCSMAQIQLCPPPPQIPNSHNMTTTLNYRDGEKVSVLCQENYLIQEGEEITCKDGRWQSIPLCVEKIPCSQPPQIEHGTINSSRSSQESYAHGTKLSYTCEGGFRISEENETTCYMGKWSSPPQCEGLPCKSPPEISHGVVAHMSDSYQYGEEVTYKCFEGFGIDGPAIAKCLGEKWSHPPSCIKTDCLSLPSFENAIPMGEKKDVYKAGEQVTYTCATYYKMDGASNVTCINSRWTGRPTCRDTSCVNPPTVQNAYIVSRQMSKYPSGERVRYQCRSPYEMFGDEEVMCLNGNWTEPPQCKDSTGKCGPPPPIDNGDITSFPLSVYAPASSVEYQCQNLYQLEGNKRITCRNGQWSEPPKCLHPCVISREIMENYNIALRWTAKQKLYSRTGESVEFVCKRGYRLSSRSHTLRTTCWDGKLEYPTCAKR
modifications: here or on the partner: N-glycans trimmed to the first GlcNAc residues (EndoHf)
Turning to B1, the dissociation constant Kd worked out at 2100 nM.
